According to patent US7045532B2 (Millennium Pharmaceuticals, Inc., priority 1999, dated 2006):

How the values were obtained:
[1] = system: COc1ccc2c(CC(=O)N[C@@H](C)C(=O)N3CCC[C@H]3C(=O)N[C@@H](CCCCNc3ccc([N+](=O)[O-])cc3[N+](=O)[O-])C(=O)O)cc(=O)oc2c1; test: purified protein, by the assay type; conditions: other: fluorogenic substrate of ACE-2, pH 6.5, 25° C.
Experimental: (§1) ACE-2 enzymatic activity was assayed in microtitre plates by the following procedure. The ACE-2 assay buffer used contained 50 mM MES (Boehringer-Mannheim), 300 mM NaCl (Sigma) and 0.01% Brij-35 (Pierce Chemical Co.) at pH 6.5.
(§2) Reactions were mixed and incubated at 25° C.

[2] = system: COc1ccc2c(CC(=O)N[C@@H](Cc3ccc(O)cc3)C(=O)N[C@H](C(=O)N[C@@H](C)C(=O)N[C@@H](CC(=O)O)C(=O)N[C@@H](C)C(=O)N3CCC[C@H]3C(=O)N[C@@H](CCCCNc3ccc([N+](=O)[O-])cc3[N+](=O)[O-])C(=O)O)C(C)C)cc(=O)oc2c1; test: purified protein, by the assay type; conditions: other: fluorogenic substrate of ACE-2, pH 6.5, 25° C.
Experimental: as §1, §2

## ACE-2 (Homo sapiens)
[1]
  Km: 340 µM
  kcat/Km: 230000 M⁻¹ s⁻¹
[2]
  Km: 130 µM
  kcat/Km: 42000 M⁻¹ s⁻¹
